The text below walks through data of patent US20200087405A1 (UNIVERSITY OF SASKATCHEWAN, published 2020).

Experiment [1] concerns the target T1, Fc-tagged ECD of ErbB4 (ErbB family member, R&D 1131-ER) (human, UniProt Q15303 26-651).
T1 construct: extracellular domain; not shown: Fc tag of the bought protein
T1 sequence (looked up): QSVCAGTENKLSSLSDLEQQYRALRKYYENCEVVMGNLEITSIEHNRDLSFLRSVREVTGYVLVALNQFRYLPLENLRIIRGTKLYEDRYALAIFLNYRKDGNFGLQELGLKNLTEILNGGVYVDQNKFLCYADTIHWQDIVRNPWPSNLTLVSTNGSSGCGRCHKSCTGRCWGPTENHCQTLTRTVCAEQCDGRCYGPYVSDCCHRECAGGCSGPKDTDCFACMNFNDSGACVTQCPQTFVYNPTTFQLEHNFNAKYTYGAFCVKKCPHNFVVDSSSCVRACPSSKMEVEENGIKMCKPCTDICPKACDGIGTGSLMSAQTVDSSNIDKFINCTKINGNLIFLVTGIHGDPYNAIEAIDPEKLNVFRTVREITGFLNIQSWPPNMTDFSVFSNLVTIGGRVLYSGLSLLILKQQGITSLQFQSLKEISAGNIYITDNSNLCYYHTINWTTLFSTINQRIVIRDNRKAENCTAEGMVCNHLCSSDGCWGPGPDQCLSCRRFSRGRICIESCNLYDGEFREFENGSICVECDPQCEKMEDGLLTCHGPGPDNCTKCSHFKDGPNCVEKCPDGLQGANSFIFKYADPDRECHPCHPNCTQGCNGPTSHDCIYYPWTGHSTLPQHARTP
In words: single point Fab-phage ELISA on immobilized protein. Background: In an ELISA, binding on a coated surface is turned into a signal by an enzyme label.

Experiment [2] concerns the target T2, Fc-tagged ECD of ErbB2 (ErbB family member, R&D 1129-ER) (human, UniProt P04626 23-652).
T2 construct: extracellular domain; not shown: Fc tag of the bought protein
The description is as above.

Experiment [3] concerns the target T3, Fc-tagged ECD of ErbB3 (R&D 348-RB) (human, UniProt P21860 20-643).
T3 construct: extracellular domain; also called ErbB family member; not shown: Fc tag of the bought protein
The experiment is described as above.

Experiment [4] concerns the target T4, cell-surface EGFR (endogenous on A431, MDA-MB-231 and other cancer cell lines); pBABE-EGFR transfected 293T … (UniProt P00533 25-1210, limits assumed).
T4 construct: whole, on cells; Untagged EGFR on cells; also called endogenous cell-surface EGFR; EGFR1
In words: flow cytometry on A431 cells, 800CW-labelled fragment. In general terms: Flow cytometry measures light scatter and fluorescence of single cells or particles in a stream.

The target in experiment [5] is T5, Fc-tagged extracellular domain (ECD) of the recombinant human EGFR (rhEGFR) (human, UniProt P00533 25-645).
T5 construct: extracellular domain; also called rhEGFR-ECD; rhEGFR-ECD-Fc; not shown: Fc tag of the bought protein (R&D 344-ER)
In words: apparent affinity by multi-point competitive ELISA using purified EGFR, Fab-phage; Fab-phage, first account of the DL06 selection.

Bounds are passed on as bounds.

B1: Fab DL06 (Fab)
heavy: EVQLVESGGGLVQPGGSLRLSCAASGFNISSSSIHWVRQAPGKGLEWVAYISSYYSSTYYADSVKGRFTISADTSKNTAYLQMNSLRAEDTAVYYCARTYCPPLMLYNPTTYQMDVNPEGKYSFGATCGWAMDYWGQGTLVTVSSASTKGPSVFPLAPSSKSTSGGTAALGCLVKDYFPEPVTVSWNSGALTSGVHTFPAVLQSSGLYSLSSVVTVPSSSLGTQTYICNVNHKPSNTKVDKKVEPKSCDKTHT
light: DIQMTQSPSSLSASVGDRVTITCRASQSVSSAVAWYQQKPGKAPKLLIYSASSLYSGVPSRFSGSRSGTDFTLTISSLQPEDFATYYCQQWSYYPITFGQGTKVEIKRTVAAPSVFIFPPSDSQLKSGTASVVCLLNNFYPREAKVQWKVDNALQSGNSQESVTEQDSKDSTYSLSSTLTLSKADYEKHKVYACEVTHQGLSSPVTKSFNRGECGGSDYKDDDDK
notes: Fab with the EGFR dimerization loop grafted in CDR-H3; the light chain entry ends in a FLAG tag; also called DL06 Fab; parent clone DL06
Turning to B1, the binding result in experiment [1] was “no binding”; in experiment [2], “no binding”; in experiment [3], “binds”. For the same molecule, the results for the Kd in experiment [4] and in experiment [5] were above 1000 nM and above 100 nM, respectively.
